Data from doi:10.1101/2022.04.25.489454.
Read-outs that look alike come from different tables or passages of the source.

Legend:
[1] = biological target: stabilized microtubules polymerised from cow brain tubulin (cow (purified from cow brains)) (UniProt Q6B856); assay: TIRF microscopy of GFP-protein decoration of immobilized microtubules
[2] = biological target: full length human GFP-CLASP2α (human) (UniProt O75122); assay: optical trap rupture force
[3] = biological target: full length human GFP-CLASP2α (human) (UniProt O75122); assay: TIRF microscopy of microtubules tethered to protein clusters on DNA origami
[4] = biological target: stabilized microtubules polymerised from cow brain tubulin (cow (purified from cow brains)) (UniProt Q6B856); assay: TIRF microscopy of GFP-protein decoration of immobilized microtubules; remark: listed apart in the source

## full length human GFP-CLASP2α (from UniProt O75122-3 1-1515) (natural protein)
[1]
  Kd: 0.5 nM
  end brightness: 594 a.u.

## stabilized microtubules polymerised from cow brain tubulin (from UniProt Q6B856 1-445) (complex)
[2]
  pulling force at 50% survival of the attachment: 14 pN
  pulling force withstood without rupture (13 of 39 microtubules): > 15.2 pN
[3]
  time for which half of the microtubules stay attached by their end: 4 h

B1: GFP-L-TOG2-S (domain or fragment)
chain: KVPAPKTSGNPANSARKPGSAGGPKVGAGASKEGGAGAVDEDDFIKAFTDVPSIQIYSSRELEETLNKIREILSDDKHDWDQRANALKKIRSLLVAGAAQYDCFFQHLRLLDGALKLSAKDLRSQVVREACITVAHLSTVLGNKFDHGAEAIVPTLFNLVPNSAKVMATSGCAAIRFIIRHTHVPRLIPLITSNCTSKSVPVRRRSFEFLDLLLQEWQTHSLERHAAVLVETIKKGIHDADAEARVEARKTYMGLRNHFPGEAETLYNSLEPSYQKSLQTYLKSSGSVASLPQSDRSSSSSQESLNRPFSSKWSTANPSTVAGRVSAGSSKASSLPGSLQRSRSDIDVNAAAGAKAHHAAGQSVRSGRLGAGALNAGSYASLEDTSDKLDGTASEDGRVRAKLSAPLAGMGNAKADSRGRSRTKMVSQSQPGSRSGSPGRVLTTTALSTVSSGVQRVLVNSASAQKRSKIPRSQGCSREASPSRLSVARSSRIPRPSVSQGCSREASRESSRDTSPVRSFQPLGPGYGISQSS
[4]
  end brightness: 757 a.u.
